In FireProtDB (doi:10.1074/jbc.m705677200):

Conditions: Helicobacter pylori (strain ATCC 700392 / 26695), 25.2 °C, Urea, whole UniProt chain shown
[1] = pH 2, CD, Sodium phosphate 23 mM
[2] = pH 2, Fluorescence, Sodium phosphate 23 mM
[3] = pH 5, Fluorescence, Sodium acetate 16 mM

B1: Flavodoxin wild type, O25776 (protein)
chain: MGKIGIFFGTDSGNAEAIAEKISKAIGNAEVVDVAKASKEQFNSFTKVILVAPTAGAGDLQTDWEDFLGTLEASDFATKTIGLVGLGDQDTYSETFAEGIFHIYEKAKAGKVVGQTPTDGYHFEASKAVEGGKFVGLVIDEDNQDDLTDERISKWVEQVKGSFA
denaturant m value [1]: 1.28 kcal/mol/M
denaturant midpoint (higher = more stable) [1]: 0.89 M
unfolding free energy [1]: 1.14 kcal/mol
denaturant m value [2]: 1.35 kcal/mol/M
denaturant midpoint (higher = more stable) [2]: 0.84 M
unfolding free energy [2]: 1.13 kcal/mol
denaturant m value (pH 5, CD, Sodium acetate 16 mM): 2.24 kcal/mol/M
denaturant midpoint (higher = more stable) (pH 5, CD, Sodium acetate 16 mM): 4.1 M
unfolding free energy (pH 5, CD, Sodium acetate 16 mM): 9.2 kcal/mol
denaturant m value [3]: 2.32 kcal/mol/M
denaturant midpoint (higher = more stable) [3]: 4.04 M
unfolding free energy [3]: 9.37 kcal/mol
denaturant m value (pH 7, CD, MOPS 30 mM): 2.11 kcal/mol/M
denaturant midpoint (higher = more stable) (pH 7, CD, MOPS 30 mM): 2.94 M
unfolding free energy (pH 7, CD, MOPS 30 mM): 6.2 kcal/mol
denaturant m value (pH 7, Fluorescence, MOPS 30 mM): 2.18 kcal/mol/M
denaturant midpoint (higher = more stable) (pH 7, Fluorescence, MOPS 30 mM): 3.01 M
unfolding free energy (pH 7, Fluorescence, MOPS 30 mM): 6.56 kcal/mol
denaturant m value (pH 9, CD, CHES 35 mM): 2.19 kcal/mol/M
denaturant midpoint (higher = more stable) (pH 9, CD, CHES 35 mM): 2.16 M
unfolding free energy (pH 9, CD, CHES 35 mM): 4.73 kcal/mol
denaturant m value (pH 9, Fluorescence, CHES 35 mM): 2.03 kcal/mol/M
denaturant midpoint (higher = more stable) (pH 9, Fluorescence, CHES 35 mM): 2.21 M
unfolding free energy (pH 9, Fluorescence, CHES 35 mM): 4.5 kcal/mol
